The target of this experiment is T1, Myc-tagged PDC E1, P08559.
T1 chain: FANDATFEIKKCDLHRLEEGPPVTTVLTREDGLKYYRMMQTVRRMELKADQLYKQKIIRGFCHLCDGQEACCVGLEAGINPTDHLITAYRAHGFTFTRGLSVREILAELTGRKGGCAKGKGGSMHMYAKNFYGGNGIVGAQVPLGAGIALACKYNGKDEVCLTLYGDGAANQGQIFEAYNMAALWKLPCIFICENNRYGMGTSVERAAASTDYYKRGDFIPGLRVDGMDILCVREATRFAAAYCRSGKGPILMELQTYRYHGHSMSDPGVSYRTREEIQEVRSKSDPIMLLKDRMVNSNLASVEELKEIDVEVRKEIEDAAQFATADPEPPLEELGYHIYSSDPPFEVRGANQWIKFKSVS
Briefly: co-immunoprecipitation (anti-Myc IP, western blot for Flag-STAT3), band intensity printed under lanes. Conditions: chain shown with the change; 293T cells, transient transfection; printed intensities relative to EV lane = 1; parent: 9.5.

B1: Flag-STAT3 WT, P40763 K685R; K707R; K709R (protein)
chain: MAQWNQLQQLDTRYLEQLHQLYSDSFPMELRQFLAPWIESQDWAYAASKESHATLVFHNLLGEIDQQYSRFLQESNVLYQHNLRRIKQFLQSRYLEKPMEIARIVARCLWEESRLLQTAATAAQQGGQANHPTAAVVTEKQQMLEQHLQDVRKRVQDLEQKMKVVENLQDDFDFNYKTLKSQGDMQDLNGNNQSVTRQKMQQLEQMLTALDQMRRSIVSELAGLLSAMEYVQKTLTDEELADWKRRQQIACIGGPPNICLDRLENWITSLAESQLQTRQQIKKLEELQQKVSYKGDPIVQHRPMLEERIVELFRNLMKSAFVVERQPCMPMHPDRPLVIKTGVQFTTKVRLLVKFPELNYQLKIKVCIDKDSGDVAALRGSRKFNILGTNTKVMNMEESNNGSLSAEFKHLTLREQRCGNGGRANCDASLIVTEELHLITFETEVYHQGLKIDLETHSLPVVVISNICQMPNAWASILWYNMLTNNPKNVNFFTKPPIGTWDQVAEVLSWQFSSTTKRGLSIEQLTTLAEKLLGPGVNYSGCQITWAKFCKENMAGKGFSFWVWLDNIIDLVKKYILALWNEGYIMGFISKERERAILSTKPPGTFLLRFSESSKEGGVTFTWVEKDISGKTQIQSVEPYTKQQLNNMSFAEIIMGYKIMDATNILVSPLVYLYPDIPKEEAFGRYCRPESQEHPEADPGSAAPYLRTRFICVTPTTCSNTIDLPMSPRTLDSLMQFGNNGEGAEPSAGGQFESLTFDMELTSECATSPM
Consider B1, for which the response stood at 2.4.
